Consider 77 sequences from the supplement of paper PMC7877785.

This data set can be described thus: self-splicing fitness, log relative to wild type (ln ratio); higher = more splicing; Tetrahymena group I intron in knt gene, E. coli kanamycin selection, DiMSum; sequences stand for … in CUCUCU…GGAGGGAAAAGUUAUCAGGCAUGCACCUGGUAGCUAGUCUUUAAACCAAUAGAUUGCAUCGGUUUAAAAGGCAAGACCGUCAAAUUGCGGGAAAGGGGUCAACAGCCGUUCAGUACCAAGUCUCAGGGGAAACUUUGAGAUGGCCUUGCAAAGGGUAUGGUAAUAAGCUGACGGACAUGGUCCUAACCACGCAGCCAAGUCCUAAGUCAACAGAUCUUCUGUUGAUAUGGAUGCAGUUCACAGACUAAAUGUCGGUCGGGGAAGAUGUAUUCUUCUCAUAAGAUAUAGUCGGACCUCUCCUUAAUGGGAGCUAGCGGAUGAAGUGAUGCAACACUGGAGCCGCUGGGAACUAAUUUGUAUGCGAAAGUAUAUUGAUUAGUUUUGGAGUACUCGUGGUCG
In short, it runs like this:
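Six replicate transformations of E. coli BL21(DE3) with a pET-22b(+) library were grown overnight at 37°C or 30°C. The library randomised all eight P1ex-region intron nucleotides, the intron lying in the knt kanamycin-resistance gene, and plates were LB agar with or without 25 μg/mL kanamycin plus 100 μg/mL carbenicillin, 50 μM IPTG and 0.2% rhamnose. Pooled colonies were amplicon-sequenced on an Illumina HiSeq 2500, and fitness is the DiMSum error-weighted combination of wild-type-normalised replicate fold changes, kanamycin versus none.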

± gives the uncertainty stated by the source.

With UACCAGCAAUAUUACGCGGA, the “self-splicing fitness (ln)” value (30 °C) is -1.69 ± 0.079 and the “self-splicing fitness (ln)” value (37 °C) was -1.04 ± 0.082.
Taken in the same sequence, the figures for CGUGAGCAAUAUUACGGAUC were -4.24 ± 0.33 and -1.88 ± 0.25.
UGCGAGCAAUAUUACGCUGC: the “self-splicing fitness (ln)” value runs as follows: (30 °C) -3.09 ± 0.25; (37 °C) -2.31 ± 0.29.
Consider AGGGAGCAAUAUUACGCGGC, for which the “self-splicing fitness (ln)” value (30 °C) is -1.89 ± 0.2 and the “self-splicing fitness (ln)” value (37 °C) is -2.05 ± 0.31.
Taken in the same sequence, the figures for GCUCAGCAAUAUUACGUCCC were -0.208 ± 0.24 and 0.272 ± 0.24.
With CCCCAGCAAUAUUACGCCUG, the “self-splicing fitness (ln)” value is, setting by setting: (30 °C) -3.37 ± 0.19; (37 °C) -2.97 ± 0.27.
With UAUCAGCAAUAUUACGAGUG, the “self-splicing fitness (ln)” value (30 °C) is -0.353 ± 0.058 and the “self-splicing fitness (ln)” value (37 °C) was -0.197 ± 0.072.
The corresponding values for CGUCAGCAAUAUUACGACGA are -1.34 ± 0.2 and -1.2 ± 0.21.
The corresponding values for GGUUAGCAAUAUUACGCAUG are -1.89 ± 0.17 and -1.57 ± 0.14.
With AUGCAGCAAUAUUACGGAGC, the “self-splicing fitness (ln)” value was -2.6 ± 0.15 (30 °C) and -2.99 ± 0.18 (37 °C).
Taken in the same sequence, the figures for GCUCAGCAAUAUUACGGCAG were -2.91 ± 0.22 and -2.82 ± 0.38.
The corresponding values for CACUAGCAAUAUUACGUGCG are -2.13 ± 0.081 and -0.945 ± 0.082.
Taken in the same sequence, the figures for UAACAGCAAUAUUACGAAAA were -3.2 ± 0.21 and -1.18 ± 0.15.
For the sequence CGCCAGCAAUAUUACGGGUA, the “self-splicing fitness (ln)” value reads like this: (30 °C) -0.998 ± 0.064; (37 °C) -0.377 ± 0.069.
Taken in the same sequence, the figures for ACACAGCAAUAUUACGGGAA were -2.99 ± 0.22 and -1.79 ± 0.14.
Turning to AGUCAGCAAUAUUACGCGUA, the “self-splicing fitness (ln)” value was -0.295 ± 0.067 (30 °C) and 0.106 ± 0.07 (37 °C).
Taken in the same sequence, the figures for AUAUAGCAAUAUUACGAUGG were -3.07 ± 0.31 and -0.944 ± 0.26.
The corresponding values for ACUGAGCAAUAUUACGAGGU are -2.91 ± 0.14 and -1.99 ± 0.23.
As for CCCAAGCAAUAUUACGAAGA, the “self-splicing fitness (ln)” value by setting is: (30 °C) -3.32 ± 0.2; (37 °C) -2.59 ± 0.2.
Taken in the same sequence, the figures for GUUUAGCAAUAUUACGCAUU were -1.53 ± 0.11 and -0.487 ± 0.12.
As for UAUUAGCAAUAUUACGGCAU, the “self-splicing fitness (ln)” value is, setting by setting: (30 °C) -1.99 ± 0.16; (37 °C) -0.541 ± 0.12.
The corresponding values for UUGAAGCAAUAUUACGGGUG are -0.54 ± 0.048 and -0.446 ± 0.066.
The corresponding values for UAUUAGCAAUAUUACGGGAA are -0.606 ± 0.27 and -1.45 ± 0.31.
Taken in the same sequence, the figures for AGUCAGCAAUAUUACGAGAC were -4.42 ± 0.39 and -2.56 ± 0.24.
As for CGUUAGCAAUAUUACGUCAU, the “self-splicing fitness (ln)” value is -2.58 ± 0.21 (30 °C) and -2.85 ± 0.3 (37 °C).
As for CAAUAGCAAUAUUACGCUCC, where the note is “37 °C”, the “self-splicing fitness (ln)” value was -0.581 ± 0.39.
As for UGUCAGCAAUAUUACGGUUU, the “self-splicing fitness (ln)” value is -1.01 ± 0.061 (30 °C) and -0.547 ± 0.086 (37 °C).
The corresponding values for GUGCAGCAAUAUUACGGGGC are -1.75 ± 0.15 and -2.63 ± 0.27.
The corresponding values for CGAAAGCAAUAUUACGGCCA are -1.29 ± 0.14 and -1.23 ± 0.099.
Taken in the same sequence, the figures for UAAAAGCAAUAUUACGUAGG were -2 ± 0.083 and -1.22 ± 0.11.
Take CAGCAGCAAUAUUACGGGCU: the “self-splicing fitness (ln)” value is -3.74 ± 0.17 (30 °C) and -2.51 ± 0.16 (37 °C).
Taken in the same sequence, the figures for AUCUAGCAAUAUUACGGCUU were -0.0659 ± 0.1 and 0.305 ± 0.12.
Taken in the same sequence, the figures for UCCGAGCAAUAUUACGAUAU were -1.5 ± 0.22 and -2.46 ± 0.41.
The corresponding values for AGACAGCAAUAUUACGGAAA are -3.32 ± 0.26 and -1.48 ± 0.13.
With CACAAGCAAUAUUACGUUGU, the “self-splicing fitness (ln)” value (30 °C) is -3.81 ± 0.16 and the “self-splicing fitness (ln)” value (37 °C) was -2.39 ± 0.13.
The corresponding values for CGGGAGCAAUAUUACGCAGG are -3.04 ± 0.36 and -0.973 ± 0.27.
With GCUUAGCAAUAUUACGGGCU, the “self-splicing fitness (ln)” value runs as follows: (30 °C) -2.79 ± 0.21; (37 °C) -3.26 ± 0.23.
The corresponding values for ACGAAGCAAUAUUACGGCUG are -0.78 ± 0.052 and -0.0127 ± 0.084.
The corresponding values for CACAAGCAAUAUUACGUACC are -3.9 ± 0.21 and -1.36 ± 0.14.
The corresponding values for UUAGAGCAAUAUUACGGGAA are -2.25 ± 0.16 and -0.296 ± 0.16.
Consider UGUUAGCAAUAUUACGAACC, for which the “self-splicing fitness (ln)” value (30 °C) is -0.427 ± 0.21 and the “self-splicing fitness (ln)” value (37 °C) amounted to 0.133 ± 0.25.
The corresponding values for UAGUAGCAAUAUUACGGCAU are -2.2 ± 0.15 and -0.67 ± 0.16.
Take AGCCAGCAAUAUUACGUAUU: the “self-splicing fitness (ln)” value reads like this: (30 °C) -3.72 ± 0.13; (37 °C) -2.05 ± 0.12.
Regarding GAUCAGCAAUAUUACGGAAA, the “self-splicing fitness (ln)” value by setting is: (30 °C) -1.01 ± 0.16; (37 °C) -0.212 ± 0.17.
Taken in the same sequence, the figures for GUCAAGCAAUAUUACGUCGU were -1.68 ± 0.066 and -0.826 ± 0.078.
With UAGCAGCAAUAUUACGACCU, the “self-splicing fitness (ln)” value runs as follows: (30 °C) -0.287 ± 0.13; (37 °C) 0.328 ± 0.13.
Taken in the same sequence, the figures for CAACAGCAAUAUUACGUAAU were -2.46 ± 0.08 and -2 ± 0.12.
Consider GGGGAGCAAUAUUACGGGAU, for which the “self-splicing fitness (ln)” value by setting is: (30 °C) -3.44 ± 0.32; (37 °C) -1.51 ± 0.22.
Consider UAGAAGCAAUAUUACGCUAC, for which the “self-splicing fitness (ln)” value (37 °C) was -2.23 ± 0.31.
On to AGAAAGCAAUAUUACGCGUU, for which the “self-splicing fitness (ln)” value runs as follows: (30 °C) -2.71 ± 0.16; (37 °C) -2.34 ± 0.17.
Turning to CGUUAGCAAUAUUACGAAUU, under “37 °C”, the “self-splicing fitness (ln)” value was -2.39 ± 0.33.
Same read-out and setting: in the case of CAAUAGCAAUAUUACGUGCU it was -2.65 ± 0.24.
With UCCGAGCAAUAUUACGCGUC, the “self-splicing fitness (ln)” value (30 °C) is -3.74 ± 0.37 and the “self-splicing fitness (ln)” value (37 °C) was -1.53 ± 0.26.
The corresponding values for UGAAAGCAAUAUUACGGGGG are -2.07 ± 0.17 and -2.89 ± 0.26.
Taken in the same sequence, the figures for AACUAGCAAUAUUACGAGCU were -1.5 ± 0.095 and -0.511 ± 0.11.
The corresponding values for GGAAAGCAAUAUUACGGCAA are -0.443 ± 0.12 and -0.141 ± 0.11.
As for GGUCAGCAAUAUUACGUACU, the “self-splicing fitness (ln)” value reads like this: (30 °C) -1.84 ± 0.12; (37 °C) -0.914 ± 0.13.
For GACUAGCAAUAUUACGUCAC, the “self-splicing fitness (ln)” value (30 °C) was -3.36 ± 0.4.
For AAUCAGCAAUAUUACGAGUA, the “self-splicing fitness (ln)” value was -1.43 ± 0.081 (30 °C) and 0.415 ± 0.083 (37 °C).
Regarding CUCCAGCAAUAUUACGGACA, the “self-splicing fitness (ln)” value (30 °C) was -0.816 ± 0.14 and the “self-splicing fitness (ln)” value (37 °C) was -0.868 ± 0.15.
The corresponding values for CCCAAGCAAUAUUACGGCUC are -2.28 ± 0.21 and -2.59 ± 0.29.
With UGGAAGCAAUAUUACGGGAU, the “self-splicing fitness (ln)” value is -1.89 ± 0.17 (30 °C) and -2.46 ± 0.28 (37 °C).
On to GAAGAGCAAUAUUACGUUCA, for which the “self-splicing fitness (ln)” value runs as follows: (30 °C) -1.33 ± 0.13; (37 °C) -0.0689 ± 0.13.
The corresponding values for CGGUAGCAAUAUUACGAUCA are -0.493 ± 0.085 and 0.196 ± 0.12.
The corresponding values for UUCCAGCAAUAUUACGAGCG are -1.6 ± 0.096 and -1.26 ± 0.1.
On to GGCGAGCAAUAUUACGGAGA, for which the “self-splicing fitness (ln)” value (37 °C) was -1.69 ± 0.39.
As to ACCUAGCAAUAUUACGCUUU, the “self-splicing fitness (ln)” value is -1.26 ± 0.055 (30 °C) and -0.293 ± 0.081 (37 °C).
For CGGCAGCAAUAUUACGUCCC, the “self-splicing fitness (ln)” value reads like this: (30 °C) -0.557 ± 0.23; (37 °C) 0.728 ± 0.37.
The corresponding values for AAGUAGCAAUAUUACGGAGA are -3.93 ± 0.37 and -2.34 ± 0.39.
The corresponding values for ACUCAGCAAUAUUACGUUGC are -3.43 ± 0.16 and -3.57 ± 0.26.
Taken in the same sequence, the figures for AGAGAGCAAUAUUACGCAAG were -3.46 ± 0.3 and -2.29 ± 0.3.
As to UUAAAGCAAUAUUACGGAGU, the “self-splicing fitness (ln)” value is -3.35 ± 0.21 (30 °C) and -1.68 ± 0.19 (37 °C).
In the case of AAUGAGCAAUAUUACGCCUU, the “self-splicing fitness (ln)” value reads like this: (30 °C) -2.11 ± 0.13; (37 °C) -1.43 ± 0.15.
On to UAUCAGCAAUAUUACGCGGC, for which the “self-splicing fitness (ln)” value is, setting by setting: (30 °C) -2.77 ± 0.31; (37 °C) -1.62 ± 0.24.
Taken in the same sequence, the figures for ACGGAGCAAUAUUACGGGGU were -3.65 ± 0.21 and -1.45 ± 0.21.
On to UCGCAGCAAUAUUACGGCGG, for which the “self-splicing fitness (ln)” value (30 °C) is -3.41 ± 0.17 and the “self-splicing fitness (ln)” value (37 °C) was -2.28 ± 0.21.
Take UGGAAGCAAUAUUACGCUGA: the “self-splicing fitness (ln)” value (37 °C) is -0.713 ± 0.4.
